Tested on: endogenous RIAM
Test: GST pull-down of endogenous RIAM in A549 cells
Type: cell-based, human
Conditions: A549 cell extracts, anti-RIAM immunoblot
From the text: However, as talin R8 interacts with RIAM ([Goult et al., 2013b]) and paxillin (shown here) in addition to DLC1, we used several approaches to evaluate whether binding of talin R8 to endogenous RIAM or paxillin might have contributed to the observed results. For RIAM, the level of expression in the cell lines used here varied from very low to undetectable. To detect RIAM protein in any of the cell extracts, we had to use an anti-RIAM immunoprecipitation step followed by anti-RIAM immunoblotting. Using these conditions, endogenous RIAM was detected in A549 and H358 cells, but not in 293T cells (Figure S5A).
Figure S5, related to figure 6. […]
form a detectable complex with GST-talin R8.
(A) The expression of endogenous RIAM in cell lines. Cell extracts were subjected to immunoprecipitation followed by immunoblotting with anti-RIAM antibody.
(B) A complex between GST-talin R8 and endogenous RIAM is undetectable in A549 cells.
A549 cells were co-transfected with GFP-DLC1 and the GST constructs indicated. Cell extracts were subject to a glutathione bead pull down assay followed by immunoblotting with anti-GST and anti-RIAM antibodies on the same membrane (left). No complex between GST-talin R8 and RIAM could be detected. Under the same conditions, wild-type GST-R8 pulled-down the co-transfected GFP-DLC1; the immunoblot with anti-GST and anti-DLC1 on the same membrane is shown (right). […]

B1: GST-R8: GST-tagged talin R8, amino acids 1,453–1,580 (protein)
chain: NSQAGQQGLVEPTQFARANQAIQMACQSLGEPGCTQAQVLSAATIVAKHTSALCNSCRLASARTANPTAKRQFVQSAKEVANSTANLVKTIKALDGDFTEENRAQCRAATAPLLEAVDNLSAFASNPE
modifications: left off: GST, end not stated, kept
complex with endogenous RIAM: did not detect a GST-R8 complex
complex with endogenous RIAM (listed as GST-talin R8): undetectable

From publication PMC4938799, “LD Motif Recognition by Talin: Structure of the Talin-DLC1 Complex” (Structure(London, England:1993), 2016)
